Assay results as given in US20230227520A1 (MAX PLANCK GESELLSCHAFT ZUR F RDERUNG DER WISSENSCHAFTEN E V, published 2023).

T1: G-CSF Receptor (G-CSFR) (R&D systems 381-GR-050/CF), recombinant human (human, UniProt Q99062 25-627, limits assumed)
T1 construct: Bought protein, amine-coupled to a CM5 chip; also called rhG-CSFR; human G-CSF receptor
T1 sequence (looked up): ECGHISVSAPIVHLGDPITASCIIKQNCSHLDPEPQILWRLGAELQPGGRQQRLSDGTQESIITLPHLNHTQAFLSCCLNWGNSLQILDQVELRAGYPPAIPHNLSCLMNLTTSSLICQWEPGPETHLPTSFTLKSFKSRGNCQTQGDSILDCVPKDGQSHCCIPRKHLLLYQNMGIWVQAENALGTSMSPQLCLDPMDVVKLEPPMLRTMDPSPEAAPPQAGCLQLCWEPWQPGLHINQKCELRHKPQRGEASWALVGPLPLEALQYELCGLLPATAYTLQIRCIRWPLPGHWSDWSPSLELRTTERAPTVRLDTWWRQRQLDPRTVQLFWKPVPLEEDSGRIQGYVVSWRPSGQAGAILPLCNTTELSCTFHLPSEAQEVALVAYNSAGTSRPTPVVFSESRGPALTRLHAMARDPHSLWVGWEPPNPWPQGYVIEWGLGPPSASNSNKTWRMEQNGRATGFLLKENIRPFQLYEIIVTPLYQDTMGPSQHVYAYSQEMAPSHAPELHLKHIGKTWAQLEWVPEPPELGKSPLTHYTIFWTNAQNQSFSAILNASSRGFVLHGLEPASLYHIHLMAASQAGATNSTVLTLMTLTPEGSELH

T2: G-CSFR on NFS-60 cells (murine myeloblastic cell line) (mouse, UniProt P40223 26-837)
T2 sequence (looked up): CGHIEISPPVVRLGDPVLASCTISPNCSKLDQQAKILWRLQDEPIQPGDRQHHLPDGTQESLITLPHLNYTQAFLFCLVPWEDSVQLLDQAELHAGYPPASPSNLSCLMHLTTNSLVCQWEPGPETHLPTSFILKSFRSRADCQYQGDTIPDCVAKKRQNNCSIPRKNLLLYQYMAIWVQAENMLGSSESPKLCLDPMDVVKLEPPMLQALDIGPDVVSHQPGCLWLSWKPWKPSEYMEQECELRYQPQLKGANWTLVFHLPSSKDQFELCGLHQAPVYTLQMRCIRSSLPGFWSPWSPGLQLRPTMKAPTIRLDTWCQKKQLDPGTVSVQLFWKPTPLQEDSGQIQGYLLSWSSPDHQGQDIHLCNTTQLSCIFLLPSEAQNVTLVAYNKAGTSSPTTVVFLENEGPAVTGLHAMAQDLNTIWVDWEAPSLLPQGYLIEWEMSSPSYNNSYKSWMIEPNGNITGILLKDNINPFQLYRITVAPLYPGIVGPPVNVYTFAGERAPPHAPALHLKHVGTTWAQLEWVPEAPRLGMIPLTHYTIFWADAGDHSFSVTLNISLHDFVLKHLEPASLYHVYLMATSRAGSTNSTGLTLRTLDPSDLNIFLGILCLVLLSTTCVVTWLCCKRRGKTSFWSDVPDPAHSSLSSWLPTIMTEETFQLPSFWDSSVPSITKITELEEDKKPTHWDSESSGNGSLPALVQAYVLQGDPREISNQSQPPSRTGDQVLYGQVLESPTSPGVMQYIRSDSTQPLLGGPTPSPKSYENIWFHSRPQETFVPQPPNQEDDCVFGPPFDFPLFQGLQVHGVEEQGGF


How the values were obtained:
[1] = target: G-CSFR on NFS-60 cells (murine myeloblastic cell line) (mouse) (UniProt P40223); assay: cell-based or functional assay
[2] = target: T1, G-CSF Receptor (G-CSFR) (R&D systems …); assay: SPR, Biacore X100, G-CSFR amine-coupled on CM5, 2nd order kinetics model, second run
Method: (§1) To obtain a more detailed picture on the nature of the binding, the inventors fitted the highest concentration sensorgram curves using higher order kinetics models. […] While this higher-order interaction model better explains the data than a 1:1 binding model, a clear deviation remained for rhG-CSF sensorgrams.
(§2) Single-cycle kinetics experiments were performed on a Biacore X100 system (GE Healthcare Life Sciences). G-CSF Receptor (G-CSFR) (R&D systems 381-GR-050/CF) was diluted to 50 μg/ml in 10 mM acetate buffer pH 5.0 and immobilized on the surface of a CM5 sensor chip (GE Healthcare 29149604) using standard amine coupling chemistry. The designs and rhG-CSF (USP RS Filgrastim, Sigma-Aldrich 1270435) were diluted in running buffer (10 mM HEPES, 150 mM NaCl, 3.4 mM EDTA, 0.005% v/v Tween-20). Analyses were conducted at 25° C. at a flow rate of 30 μl/min. Five sequential 10-fold increasing concentrations of the sample solution (for the designs from 0.5 nM to 50 μM, and for rhG-CSF from 0.05 to 500 nM) were injected over the functionalized sensor chip surface for 180 s, followed by a 180 s dissociation with running buffer. At the end of each run, the sensor surface was regenerated with a 240 s injection of 10 mM glycine-HCl pH 2.0. Each experiment was performed two times for rhG-CSF, Boskar3, Boskar4, diSohair2, Moevan, and Moevan_t2. Association rate (ka), dissociation rate (kd), and equilibrium dissociation (Kd) constants were initially obtained by global fitting of the experimental reference-subtracted data to a 1:1 interaction model using the Biacore X100 evaluation software (v.2.0.1).

[3] = target: T1, G-CSF Receptor (G-CSFR) (R&D systems …); assay: SPR, Biacore X100 single-cycle kinetics, G-CSFR amine-coupled on CM5, 1:1 binding model
Method: as §2, with “(v.2.0.1). To evaluate if a kinetics model that depends on double the analyte stoichiometry improves the goodness of fit to the data, the following rate integral was used: […]” for “(v.2.0.1).”

[4] = target: T1, G-CSF Receptor (G-CSFR) (R&D systems …); assay: SPR, 1:1 binding, value for the two runs together as told in the text; 1:1 binding, injection dilution series
Method: as §1
as §2, with “Association rate (ka), dissociation rate (kd), and equilibrium dissociation (Kd) constants were initially obtained by global fitting of the experimental reference-subtracted data to a 1:1 interaction model using the Biacore X100 evaluation software (v.2.0.1).” left out

[5] = target: T2, G-CSFR on NFS-60 cells (murine …); assay: cell-based or functional assay
[6] = target: T1, G-CSF Receptor (G-CSFR) (R&D systems …); assay: SPR, Biacore X100 single-cycle kinetics, G-CSFR amine-coupled on CM5, 1:1 binding model, second run
Method: as §2, with “(v.2.0.1). To evaluate if a kinetics model that depends on double the analyte stoichiometry improves the goodness of fit to the data, the following rate integral was used: […]” for “(v.2.0.1).”

[7] = target: T1, G-CSF Receptor (G-CSFR) (R&D systems …); assay: SPR, Biacore X100, G-CSFR amine-coupled on CM5, 2nd order kinetics model
Method: as §2, with “(v.2.0.1). To evaluate if a kinetics model that depends on double the analyte stoichiometry improves the goodness of fit to the data, the following rate integral was used: […]” for “(v.2.0.1).”

[8] = target: T1, G-CSF Receptor (G-CSFR) (R&D systems …); assay: SPR, second-order reaction model, value as told in the text; second-order reaction model, highest concentration sensorgram
Method: as §1, §2

[9] = target: T1, G-CSF Receptor (G-CSFR) (R&D systems …); assay: SPR (Biacore), G-CSFR immobilised on the chip, rhG-CSF 4 nM - 64 nM as analyte, five traces with binding model fit [panel A]
[10] = target: T1, G-CSF Receptor (G-CSFR) (R&D systems …); assay: SPR, Biacore X100 single-cycle kinetics, G-CSFR amine-coupled on CM5, 1:1 binding model; Table 10 series (Moevan/diSohair2 comparison), 1:1 binding model
[11] = target: T1, G-CSF Receptor (G-CSFR) (R&D systems …); assay: SPR, Biacore X100 single-cycle kinetics, G-CSFR amine-coupled on CM5, 1:1 binding model; remark: listed apart in the source
Method: To test whether the grafted epitope residues mediate binding of the designs to the G-CSF receptor, the inventors also performed SPR measurements for the Moevan and diSohair2 initial design templates (Moevan_control and diSohair_control, respectively), and no binding was observed (FIG. 20C,F).
as §2, with “(v.2.0.1). To evaluate if a kinetics model that depends on double the analyte stoichiometry improves the goodness of fit to the data, the following rate integral was used: […]” for “(v.2.0.1).”

Molecule	Kd [2]	koff [2]	kon [2]	Kd [3]	koff [3]	kon [3]	Kd [4]	NFS-60 EC50 (ng/mL), proliferation of NFS-60 cells [5]	Kd [6]	koff [6]	kon [6]	Kd [7]	koff [7]	kon [7]	Kd [8]	also measured
csf_2d9q|WILD_TYPE G-CSF (from UniProt P09919 37-204) (ligand)	–	–	–	–	–	–	–	–	–	–	–	–	–	–	–	NFS-60 EC50 (ng/mL), proliferation of NFS-60 cells [1]: 0.055 ng/mL
Boskar_3 (designed binder) AALAAVLAEIYKGLAEYQARLQSLEGISPELGPALDALRLDVADFATTIAQAMEENKGPLPQSFLLKALEQIRKIQADAAALREKLAATYPSSQRAAAAVEIAAQLEAFLEKAYEILRHLAAA	2600 nM	0.0058 s⁻¹	2200 M⁻¹ s⁻¹	12 nM	0.0015 s⁻¹	130000 M⁻¹ s⁻¹	14 nM	768 ng/mL	16 nM	0.0019 s⁻¹	120000 M⁻¹ s⁻¹	6000 nM	0.0047 s⁻¹	780 M⁻¹ s⁻¹	4400 nM	–
Boskar_4 (designed binder) AALAAALAEIYKGLAEYQARLKSLEGISPELGPALDALRLDMADFATTMAQAMEEGLDSLPQSFLLKALEQIRKIQADAAALREKLAATYKGNDRAAAAVEIAAQLEAFLEKAYQILRHLAAA	5800 nM	0.008 s⁻¹	1400 M⁻¹ s⁻¹	8.5 nM	0.0045 s⁻¹	520000 M⁻¹ s⁻¹	5.1 nM	27 ng/mL	1.7 nM	0.0015 s⁻¹	890000 M⁻¹ s⁻¹	6400 nM	0.0095 s⁻¹	1500 M⁻¹ s⁻¹	6100 nM	–
rhG-CSF (recombinant human G-CSF; USP RS Filgrastim, Sigma-Aldrich 1270435) (ligand) TPLGPASSLPQSFLLKCLEQVRKIQGDGAALQEKLCATYKLCHPEELVLLGHSLGIPWAPLSSCPSQALQLAGCLSQLHSGLFLYQGLLQALEGISPELGPTLDTLQLDVADFATTIWQQMEELGMAPALQPTQGAMPAFASAFQRRAGGVLVASHLQSFLEVSYRVLRHLAQP	88 nM	0.00084 s⁻¹	10000 M⁻¹ s⁻¹	0.36 nM	0.00028 s⁻¹	790000 M⁻¹ s⁻¹	–	–	0.41 nM	0.00026 s⁻¹	640000 M⁻¹ s⁻¹	82 nM	0.0009 s⁻¹	11000 M⁻¹ s⁻¹	86 nM	Kd [9]: 1.4 nM; koff [9]: 0.0004 s⁻¹; kon [9]: 290000 M⁻¹ s⁻¹; Kd [10]: 1.1 nM; koff [11]: 0.00049 s⁻¹; kon [11]: 300000 M⁻¹ s⁻¹
